From article PMC4355285 come the findings set out here.

Where two headings read alike, the source gives them in different places.

Assay [1] has as its target human CCL18 (human) (UniProt P55774). Briefly: SAXS.
For assay [2] the target is unchanged. Briefly: SAXS. This is another data set of the same source.

In the assay with human CCL18 (human) [1], “human CCL18 (from UniProt P55774 21-89) (natural protein)” gave a percent of the population as dimer of 32%, a percent of the population as monomer of 65% and a percent of the population as tetramer of 3%. Moreover, in the assay with human CCL18 (human) [2], the percent of the population as dimer worked out at 28%, the percent of the population as hexamer came to 24% and the percent of the population as monomer stood at 48%.
